Test results published in patent publication US10562947B2, “Compositions and methods for preventing or treating diseases, conditions or processes characterized by aberrant fibroblast proliferation and extracellular matrix deposition” (MOERAE MATRIX, INC., priority 2011, dated 2020).

How the values were obtained:
Assay in all cases: Kinase Profiling Assay
Type in all cases: biochemical
Details in all cases: 100 μM peptide
[1] = biological target: T1, ARK5(h) (Homo sapiens, UniProt O60285)
T1 sequence (O60285 1-661): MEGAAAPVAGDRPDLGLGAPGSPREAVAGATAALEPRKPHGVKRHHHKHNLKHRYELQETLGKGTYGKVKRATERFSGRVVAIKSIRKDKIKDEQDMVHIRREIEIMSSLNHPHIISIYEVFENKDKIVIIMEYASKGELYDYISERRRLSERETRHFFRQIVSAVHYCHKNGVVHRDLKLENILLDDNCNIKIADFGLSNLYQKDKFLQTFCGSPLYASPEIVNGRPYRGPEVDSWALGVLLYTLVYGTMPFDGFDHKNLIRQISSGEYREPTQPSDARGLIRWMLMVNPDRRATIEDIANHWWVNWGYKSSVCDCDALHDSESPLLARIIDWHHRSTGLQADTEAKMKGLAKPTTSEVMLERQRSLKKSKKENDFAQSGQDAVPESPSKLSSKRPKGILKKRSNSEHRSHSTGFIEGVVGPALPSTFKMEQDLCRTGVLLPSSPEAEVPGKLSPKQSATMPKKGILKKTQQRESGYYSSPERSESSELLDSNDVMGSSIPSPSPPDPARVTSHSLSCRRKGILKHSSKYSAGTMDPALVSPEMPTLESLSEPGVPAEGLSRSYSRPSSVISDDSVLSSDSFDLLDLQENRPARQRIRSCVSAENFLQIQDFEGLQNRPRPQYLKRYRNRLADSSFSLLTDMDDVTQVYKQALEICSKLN
Method in brief: (§1)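 In duplicate, the activities of 266 available human kinases were determined with MK2 inhibitory peptides present, as a measure of peptide selectivity.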

[2] = biological target: T2, Itk(h) (Homo sapiens, UniProt Q08881)
T2 construct: purchased Millipore
T2 sequence (Q08881 1-620): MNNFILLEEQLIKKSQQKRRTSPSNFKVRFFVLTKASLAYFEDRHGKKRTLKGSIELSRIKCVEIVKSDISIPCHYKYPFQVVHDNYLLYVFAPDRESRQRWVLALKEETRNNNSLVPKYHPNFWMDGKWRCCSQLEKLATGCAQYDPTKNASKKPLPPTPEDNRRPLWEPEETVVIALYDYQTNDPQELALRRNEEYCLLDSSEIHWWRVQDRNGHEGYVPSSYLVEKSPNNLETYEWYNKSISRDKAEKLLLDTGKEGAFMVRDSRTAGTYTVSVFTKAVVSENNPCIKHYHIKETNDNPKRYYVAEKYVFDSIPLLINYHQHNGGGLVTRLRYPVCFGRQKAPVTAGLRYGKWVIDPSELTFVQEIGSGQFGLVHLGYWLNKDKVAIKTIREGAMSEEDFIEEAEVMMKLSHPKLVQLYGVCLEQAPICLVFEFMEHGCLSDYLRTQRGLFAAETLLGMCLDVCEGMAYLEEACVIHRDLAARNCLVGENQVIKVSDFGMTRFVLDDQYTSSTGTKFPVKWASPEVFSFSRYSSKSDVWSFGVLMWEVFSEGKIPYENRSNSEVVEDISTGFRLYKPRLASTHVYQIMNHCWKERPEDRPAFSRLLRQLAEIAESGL
Method in brief: as §1

[3] = biological target: Lck(h) activated (Homo sapiens, UniProt P06239)
Method in brief: as §1

[4] = biological target: T3, NEK2(h) (Homo sapiens, UniProt P51955)
T3 sequence (P51955 1-445): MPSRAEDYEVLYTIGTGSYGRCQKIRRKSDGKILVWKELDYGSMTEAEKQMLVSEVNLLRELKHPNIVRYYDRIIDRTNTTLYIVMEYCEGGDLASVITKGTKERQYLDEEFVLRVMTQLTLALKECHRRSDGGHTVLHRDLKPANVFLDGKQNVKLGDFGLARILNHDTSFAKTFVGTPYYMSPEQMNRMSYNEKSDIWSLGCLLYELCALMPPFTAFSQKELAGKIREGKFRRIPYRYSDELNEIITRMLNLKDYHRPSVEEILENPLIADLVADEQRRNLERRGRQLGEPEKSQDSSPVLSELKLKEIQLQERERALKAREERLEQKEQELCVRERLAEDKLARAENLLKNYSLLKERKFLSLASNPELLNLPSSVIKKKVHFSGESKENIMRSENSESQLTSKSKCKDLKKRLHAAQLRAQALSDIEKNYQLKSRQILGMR
Method in brief: as §1

[5] = biological target: T4, IKKα(h) (Homo sapiens, UniProt O15111)
T4 construct: purchased Millipore
T4 sequence (O15111 1-745): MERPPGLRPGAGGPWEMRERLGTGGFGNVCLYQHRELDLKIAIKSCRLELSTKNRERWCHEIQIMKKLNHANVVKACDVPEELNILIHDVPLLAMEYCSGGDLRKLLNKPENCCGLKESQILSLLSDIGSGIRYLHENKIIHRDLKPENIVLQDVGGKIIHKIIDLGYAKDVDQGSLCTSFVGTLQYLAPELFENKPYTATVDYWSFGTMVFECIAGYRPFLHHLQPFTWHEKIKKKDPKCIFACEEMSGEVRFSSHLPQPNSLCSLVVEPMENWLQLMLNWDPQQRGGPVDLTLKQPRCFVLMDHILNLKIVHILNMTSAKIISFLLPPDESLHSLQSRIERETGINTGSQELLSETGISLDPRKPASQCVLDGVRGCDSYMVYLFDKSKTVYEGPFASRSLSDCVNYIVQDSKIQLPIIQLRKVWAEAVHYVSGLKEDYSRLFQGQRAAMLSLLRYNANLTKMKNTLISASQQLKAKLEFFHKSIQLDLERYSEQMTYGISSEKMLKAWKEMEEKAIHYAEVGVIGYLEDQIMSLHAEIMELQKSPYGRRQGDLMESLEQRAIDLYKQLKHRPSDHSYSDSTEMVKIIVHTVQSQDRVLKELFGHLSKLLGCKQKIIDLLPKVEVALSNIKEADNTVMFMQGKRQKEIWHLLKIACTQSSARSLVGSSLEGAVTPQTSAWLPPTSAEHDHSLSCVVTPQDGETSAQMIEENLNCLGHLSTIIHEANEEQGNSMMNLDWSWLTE
Method in brief: as §1

[6] = biological target: VRK2(h) (Homo sapiens, UniProt Q86Y07)
Method in brief: as §1

Lck(h) activated, sequence (P06239 whole entry): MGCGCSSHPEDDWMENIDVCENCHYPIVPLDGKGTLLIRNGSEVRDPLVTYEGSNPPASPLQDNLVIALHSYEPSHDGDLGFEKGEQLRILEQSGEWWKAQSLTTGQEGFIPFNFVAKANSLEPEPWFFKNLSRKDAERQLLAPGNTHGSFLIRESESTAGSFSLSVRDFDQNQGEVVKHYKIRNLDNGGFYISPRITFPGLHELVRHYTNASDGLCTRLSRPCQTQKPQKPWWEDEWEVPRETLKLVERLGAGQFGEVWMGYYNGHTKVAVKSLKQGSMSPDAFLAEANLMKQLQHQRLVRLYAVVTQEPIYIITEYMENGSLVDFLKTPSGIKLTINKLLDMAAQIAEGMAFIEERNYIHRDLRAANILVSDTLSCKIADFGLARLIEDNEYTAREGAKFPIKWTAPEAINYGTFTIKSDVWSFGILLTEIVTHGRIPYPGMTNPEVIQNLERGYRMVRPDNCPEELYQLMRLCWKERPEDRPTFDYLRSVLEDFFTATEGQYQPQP
VRK2(h), sequence (Q86Y07 whole entry): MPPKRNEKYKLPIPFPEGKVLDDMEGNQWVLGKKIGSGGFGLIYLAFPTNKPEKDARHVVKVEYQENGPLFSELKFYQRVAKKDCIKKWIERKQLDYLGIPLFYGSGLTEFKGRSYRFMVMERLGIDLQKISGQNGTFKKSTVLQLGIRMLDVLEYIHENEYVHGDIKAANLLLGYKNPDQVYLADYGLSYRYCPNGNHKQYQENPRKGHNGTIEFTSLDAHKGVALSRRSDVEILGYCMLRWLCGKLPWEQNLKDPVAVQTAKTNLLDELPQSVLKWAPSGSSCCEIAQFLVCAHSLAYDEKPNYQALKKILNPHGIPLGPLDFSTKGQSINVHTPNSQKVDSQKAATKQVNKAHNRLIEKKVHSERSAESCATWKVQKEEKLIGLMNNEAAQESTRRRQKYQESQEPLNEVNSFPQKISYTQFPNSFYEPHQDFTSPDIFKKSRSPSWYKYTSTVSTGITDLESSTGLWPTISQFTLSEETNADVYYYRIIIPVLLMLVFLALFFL

Sequence | ARK5(h) % activity [1] | Itk(h) % activity [2] | Lck(h) activated % activity [3] | NEK2(h) % activity [4] | IKKα(h) % activity [5] | VRK2(h) % activity [6]
YARAAARQARAKALNRQLGVA (Mammalian) [MMI-0200] | 93% | 98% | 90% | 97% |  | 
HRRIKAWLKKIKALARQLGVAA (Mammalian) [MMI-0500] | 20% | 7% | 76% | 0% | 50% | 169%
KAFAKLAARLYRKALARQLGVAA [MMI-0400] | 69% | 63% | 216% | 61% | 87% | 185%
FAKLAARLYRKALARQLGVAA [MMI-0300] | 78% | 77% | 243% | 78% | 93% | 161%
